Tests used:
Test in all cases: fluorescence anisotropy
InrS = molecular target: T1, InrS (Synechocystis PCC 6803, UniProt Q55554)
T1 sequence: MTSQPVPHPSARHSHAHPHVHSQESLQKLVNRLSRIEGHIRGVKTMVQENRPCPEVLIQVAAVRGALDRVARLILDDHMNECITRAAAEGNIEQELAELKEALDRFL

InrS H21E = molecular target: T2, InrS H21E (Synechocystis PCC 6803, UniProt Q55554 61-167, H81E)
T2 sequence: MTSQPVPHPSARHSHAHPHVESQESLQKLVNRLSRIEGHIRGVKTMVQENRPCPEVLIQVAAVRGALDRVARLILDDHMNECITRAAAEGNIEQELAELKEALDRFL

InrS H21L = molecular target: T3, InrS H21L (Synechocystis PCC 6803, UniProt Q55554 61-167, H81L)
T3 sequence: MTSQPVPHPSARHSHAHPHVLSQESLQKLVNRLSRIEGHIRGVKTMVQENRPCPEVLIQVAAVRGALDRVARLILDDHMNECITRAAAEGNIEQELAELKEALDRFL

Measured: binding result

B1: nikProFA (dsDNA)
DNA 1: AAATCCATATCCCCCTTCCCCCCAGAGGGTATT
DNA 2: AATACCCTCTGGGGGGAAGGGGGATATGGATTT
binds: InrS | InrS H21E | InrS H21L

From paper PMC5365139
